Data from paper PMC4249841.

Molecular target: Hsp70-mCherry (human, cytoplasmic, heat-inducible hsp70 (hsp72) with a C-terminal mCherry tag) (human) (UniProt P0DMV8)
Experiment: FRET or BRET; live U2OS cells co-expressing the GFP-tagged PGK (donor) and the mCherry-tagged partner (acceptor); donor/acceptor (D/A) fluorescence ratio per cell under steady illumination, temperature titration 20°C-45°C, fitted by a two-state model

Chain of UniProt P0DMV8 (P0DMV8 whole entry): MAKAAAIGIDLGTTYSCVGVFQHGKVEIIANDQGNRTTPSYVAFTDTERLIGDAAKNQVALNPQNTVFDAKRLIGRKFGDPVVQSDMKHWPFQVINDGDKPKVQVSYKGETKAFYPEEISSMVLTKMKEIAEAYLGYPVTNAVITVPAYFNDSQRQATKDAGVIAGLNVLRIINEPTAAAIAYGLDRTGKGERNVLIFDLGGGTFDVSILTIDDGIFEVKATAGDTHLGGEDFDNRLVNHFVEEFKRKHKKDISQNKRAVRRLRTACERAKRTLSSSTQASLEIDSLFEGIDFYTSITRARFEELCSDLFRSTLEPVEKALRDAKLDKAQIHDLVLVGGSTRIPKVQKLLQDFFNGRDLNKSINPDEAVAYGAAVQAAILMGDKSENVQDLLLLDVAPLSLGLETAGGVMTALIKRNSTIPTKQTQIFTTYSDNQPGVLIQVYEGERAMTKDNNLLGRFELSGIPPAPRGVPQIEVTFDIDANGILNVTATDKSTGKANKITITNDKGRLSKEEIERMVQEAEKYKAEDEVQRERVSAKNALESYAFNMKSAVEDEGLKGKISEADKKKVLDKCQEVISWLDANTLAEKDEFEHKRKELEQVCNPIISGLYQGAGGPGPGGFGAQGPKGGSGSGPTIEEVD

temperature midpoint of binding: 39 °C
temperature of binding onset: 35 °C
Substance: ltPGK-GFP (low melting temperature mutant of phosphoglycerate kinase, Y122W/W308F/W333F, with an N-terminal GFP tag) (enzyme)
